Assay [1] has as its target preF (DS-Cav1) with a C-terminal 8x His-tag and AviTag (respiratory syncytial virus (strain not stated)) (UniProt P03420). As to the kind of experiment: SPR.
Assay [2] concerns the target preF-stabilized variant of RSV F (PR-DM), tags removed, deglycosylated (respiratory syncytial virus (strain not stated)) (UniProt P03420). As to the kind of experiment: crystal structure.

The results in this text go back to publication PMC6005179.

For the substance ADI-19425 Fab, light chain Y31A variant, the fold reduction in affinity against ADI-19425 in assay [1] was > 200 fold.

Consider ADI-19425 Fab, light chain Y91A variant, for which, in assay [1], the fold reduction in affinity against ADI-19425 is > 80 fold.

AM22 Fab: the stoichiometry N (Fab per preF trimer) in assay [2] amounted to 3.
